Data as given in publication PMC4141822.
Changes are numbered by the printed parent chain.

Columns and labels:
Details in all cases: protein: recombinant; tags: none stated (pET24a); label: 5' 32P
Csa5 Y29A = molecular target: T1, Csa5 Y29A (Thermoproteus tenax Kra1, UniProt G4RJZ0 1-130, Y29A); test: EMSA; shift from 15 uM; EMSA: 100 mM HEPES/KOH pH 7, 10 mM beta-mercaptoethanol, 37 C 30 min, 6% native TBE PAGE; MST: 50 mM Tris-HCl pH 7.4, 150 mM NaCl, 0.05% Tween-20, 37 C 30 min
T1 sequence: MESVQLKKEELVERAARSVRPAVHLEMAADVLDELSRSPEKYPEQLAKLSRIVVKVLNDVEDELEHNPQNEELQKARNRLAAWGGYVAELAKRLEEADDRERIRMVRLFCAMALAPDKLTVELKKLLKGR

Csa5 D33A = molecular target: T2, Csa5 D33A (Thermoproteus tenax Kra1, UniProt G4RJZ0 1-130, D33A); test: as above
T2 sequence: T1 sequence with A29Y, D33A

Csa5 D30A/D33A = molecular target: T3, Csa5 D30A/D33A (Thermoproteus tenax Kra1, UniProt G4RJZ0 1-130, D30A;D33A); test: EMSA; defined shift from 30 uM; EMSA: 100 mM HEPES/KOH pH 7, 10 mM beta-mercaptoethanol, 37 C 30 min, 6% native TBE PAGE; MST: 50 mM Tris-HCl pH 7.4, 150 mM NaCl, 0.05% Tween-20, 37 C 30 min
T3 sequence: T1 sequence with A29Y, D30A, D33A

B1: non-target (NT) ssDNA 97 nt (ssDNA)
DNA: GTCGACTAATACGACTCACTATAGGCCTATCGCTTGTCCAACCGGGCTCCTCTATATGTCGTCATTAGCTTACCGCTGAGCAATAACTAGCAAGCTT
B1 was tested, and the binding signal (Csa5 Y29A) was ~10 % of WT binding, the binding signal (Csa5 D33A) was ~18 % of WT binding and the binding signal (Csa5 D30A/D33A) was ~4 % of WT binding.
